According to the nanobody polyreactivity screen of Harvey et al. (2022):

Assay: yeast display, Sf9 membrane polyspecificity reagent, FACS + sequencing; frameworks hold sequencing errors
How it was run: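 Nanobodies came from a synthetic yeast display library in Saccharomyces cerevisiae BJ5465, induced with galactose for 36–48 hours and stained for 1 hour at 4 °C with 10% biotinylated, detergent-solubilized Sf9 membrane reagent. Cells were enriched on streptavidin microbeads and then FACS-sorted, with low and high (top ~1%) gates set on anti-HA fluorescence for expression and streptavidin fluorescence for reagent binding. Each polyreactivity label reflects the gate a clone came from. Genes were amplified by colony PCR, sequenced by MiSeq 2 × 250 and filtered by CDR length.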

| Sequence | polyreactivity (PSR sort gate) |
| --- | --- |
| QVQLVESGGGLVQAGGSLRLSCAASARIFPWNAMGWYRQAPGKERELVAAITSGGGTTYYADSVKGRFTISRDNAKNTVYLQMNSLKPEDTAVYYCATPWEGSSTADYRISVYYWGQGTQVTVSS | low polyreactivity |
| QVQLVESGGGLVQAGGSLRLSCAASARIFYAYTMGWYRQAPGKERELVAAISGSGSTYYADSVKGRFTISRDNAMNTFFLQMNSLKPEDTAVYYCAADVTGGRKYDYWGQGTEVTVSS | low polyreactivity |
| QVQLVESGGGLVQAGGSLRLSCAASARTFATYAMGWYRHAPGKEWELVAGITSGGNTYYADSVKGRFTISRDNAKNTVYLQMNSLKPVDTAVYYCAADRVYLGLFRYEYWGQGTQVTVSS | high polyreactivity |
| QVQLVESGGGLVQAGGSLRLSCAASARTFYYNGMGWYIQAPGKERELVAASSGGGSSTSYADSVKGRFTISRDNAKNTVYLQMNSLKPEDTAVYYCAAKYGALRYYKMYYWGQGTQVTVSS | low polyreactivity |
| QVQLVESGGGLVQAGGSLRLSCAASASIFDIYGMGWYRKAPGKERELVASISGGAGSTNYADSVKGRFTISRDNAKNTVYLQMNSLKPEDTAVYYCAADSADPTEYDYWGQGTQVTVSS | low polyreactivity |
| QVQLVESGGGLVQAGGSLRLSCAASASIFPDNTMGWYRQAPGKERELVAAIDGRGGTTYYADSVKGRFTISRDNAKNTVYLQMNSLKPEDTAVYYCARDIGHSARYDYWGQGTQVTVSS | low polyreactivity |
| QVQLVESGGGLVQAGGSLRLSCAASASIFWYNSMGWYRQAPGKEREFVDSISGSGTSTYADSVKGRFTISRDNAKNTVYLQMNSLKPEDTAVYYCIAYYEYSWLYSNWLYGKYDYWGQGTQVTVSS | low polyreactivity |
| QVQLVESGGGLVQAGGSLRLSCAASASIISYYAKGWYRQAPGKERELVAAISGSGSRTYYADSVKGRFTISRDNAKNTVYLQMNSLKPEDTAVYYCAARSLYRGFGYWGQGTQVTVSS | high polyreactivity |
| QVQLVESGGGLVQAGGSLRLSCAASASTFILSAMGWYRQAPGNERELVAAISSDGSTYYADSVKGRFTISRDNAKNTVYLQMNSLKPEDTAVYYCAAYGYDADTGYDYWGQGTQVTVSS | low polyreactivity |
| QVQLVESGGGLVQAGGSLRLSCAASASTFVYYAMGWYRQAPGKERELVAAISRSGTSTYYADSVKGRFTISRDNAKNTVYLQMNSLKPEDTAVFYCNARKKQGFDYWGQGTQVTVSS | high polyreactivity |
| QVQLVESGGGLVQAGGSLRLSCAASASTFWRYAMGWYRQAPGKERELVAAISWNGGSTYYADSVKGRFTISRDNAKNTVYLQMNSLKPEDTAVYYCARGYSWSVGYPRVQDMDYWGQGTQVTVSS | high polyreactivity |
| QVQLVESGGGLVQAGGSLRLSCAASEFTFLLYAMGWYRQAPGKERELVAAISRTGGSTYYADSVKGRFTISRDNAKKTVYLQMNSLNPEDTAVYYCNAAISRAWVSYYGSSSRYDYWGQGTQVTVSS | low polyreactivity |
| QVQLVESGGGLVQAGGSLRLSCAASFRYNDMGWYRQAPGKERELDAAISSGASTSYPDSVKGRFTISRDNAKNTVYLQMNSLKPEDSAVSYCAAETYELYGLNEYDYWGQGTQVTVSS | low polyreactivity |
| QVQLVESGGGLVQAGGSLRLSCAASGAILRRYAMGWYRQAPGKERELVAAISYSGGNTYYADSVKGRFTISRDNAKNTVYLQMNSLKPEDTAVYYCAARYYGTYRGFYYWGQGTQVTVSS | high polyreactivity |
| QVQLVESGGGLVQAGGSLRLSCAASGFAFSYYAMGWYRQATGKEREFVASIDWSGGSTYYADSVKGRFTISRDNAKNTVYLQLNSLKPEDTAVYYCAAELDYFPGYDYWGQGTQVTVSS | low polyreactivity |
| QVQLVESGGGLVQAGGSLRLSCAASGFAVSYYAMAWYRQAPGKEREFVASSDWSGGSTYYADSVKGRFTISRDNAKNTVYLQMNSLKPEYTAVYYCAAELVYFPGYDYWGQGTQVTVSS | low polyreactivity |

| Sequence | polyreactivity (PSR sort gate) |
| --- | --- |
| QVQLVESGGGLVQAGGSLRLSCAASGFIFAAYAMGWYRQAPGKERELVAAISGSGGRTYYADSVKGRFTISRDNAKNTVYLQMNSLKPEDTAVYYCATPPGYPPGSIKWSRFGYWGQGTQVTVSS | high polyreactivity |
| QVQLVESGGGLVQAGGSLRLSCAASGFIFADNAMGWYRQAPGKERELVAGITSGGITNYADSVKGRFTISRDNAKNTVYLQMNSLKPEDTAVYYCAVYYRRWFSRYDYWGQGTQVTVSS | low polyreactivity |
| QVQLVESGGGLVQAGGSLRLSCAASGFIFADNTMGWYRQAPGKERELVAAISRRGGSTYYADSVKGRFTISRDNAKNTVYLQMNSLKPEDTAVYYCAARPFVKHDYWGQGTQVTVSS | high polyreactivity |
| QVQLVESGGGLVQAGGSLRLSCAASGFIFAEYAMGWYRQAPGKDRELVAAITSGGSTSYADSVKGRFTISRDNAKNTVYLQMNSLKPEDTAVYYCAATWYYHYNDWKHWYEYGYWGQGTQVTVSS | low polyreactivity |
| QVQLVESGGGLVQAGGSLRLSCAASGFIFAEYAMGWYRQAPGKERELVAAITSGGSTSYADSVKGRFTISRDNAKNTVYLQMNSLIPEDTAVYYCAATWYYHYNDWKHWYEYGYWGQGTQVTVSS | low polyreactivity |
| QVQLVESGGGLVQAGGSLRLSCAASGFIFAFNAMGWYRQAPGKERELVAAISRSGGSTYADSVKGRFTISRDNEKNTVYLQMNSLKPEDTAVYFCAAYSGVGYLWFDYWGHGTQVTVSS | low polyreactivity |
| QVQLVESGGGLVQAGGSLRLSCAASGFIFAGNAMGWYRQAPGKEREWVAAISRRGVRTYYADSVKGRFTISRDNAKNTVYLQMNSLKPEDTAVYYCAADRPASLISSDYWGQGTQVTVSS | high polyreactivity |
| QVQLVESGGGLVQAGGSLRLSCAASGFIFAGYAMGWYRQAPGKERELVAAISSRGGSTYYADSVKGRFTISRDNAKNTVYLQMNSLKPEDTAVYYCNKYYYGFTPDGYKKMDYWGQGTQVTVSS | low polyreactivity |
| QVQLVESGGGLVQAGGSLRLSCAASGFIFAINAMGWYRQAPGKEREFVAAISSDGASTYYADSVKGRFTISRDNAKNTVYFQMNSLKPEDTAVYYCNAVPYEWTYPYEYYYWGQGTQVTVSS | low polyreactivity |
| QVQLVESGGGLVQAGGSLRLSCAASGFIFAKYAMGWYRQAPGKEMELVAAITSGGSTNYADSVKGRFTISRDNAKNTVYLQMNSLKPDDTAVYYCNRGFDWWYRYRHYDYWGQGTQVTVSS | low polyreactivity |
| QVQLVESGGGLVQAGGSLRLSCAASGFIFAKYAMGWYRQAPGKERALGAAITSGGSTNYADSVKGRFTISRDNAKNTLYLQMNSLNPEDTAVYSCNRGFDWCYRYRHYDYWGQGTQVTVSS | low polyreactivity |
| QVQLVESGGGLVQAGGSLRLSCAASGFIFANYVMGWYRQAPGKERELVAAITYSGNTYYADSVKGRFTISRDNAKNTVYLQMNSLKPVDTAVYYCNADYVEGGLPGYDFDYWGQGTQVTVSS | low polyreactivity |
| QVQLVESGGGLVQAGGSLRLSCAASGFIFAPNAMGWYRQAPGKERELVAAISQSGASTFYADSVKGRFTISRDNAKNTVYFQMNSLKPEDTAVYYCAAPPYYSYDYWGQGTQVTVSS | low polyreactivity |
| QVQLVESGGGLVQAGGSLRLSCAASGFIFARNAMGRYRQDTGKERELVAVISTRGRTYYADSVKGRFTISRDNSKNTVYLQMNSLKPEDTAVYYCNADKVIGYDYWGQCTQVTVSS | high polyreactivity |
| QVQLVESGGGLVQAGGSLRLSCAASGFIFARYAMGWYRQAPGKEREFVAAITWSGGTTYYADSVKGRFTISRDYAKNTVYFQMNSLKPEDTAVYYCAARWGKTLWQYNYWGQGTQVTVSS | high polyreactivity |
| QVQLVESGGGLVQAGGSLRLSCAASGFIFASNVMGWYRQAPGKERELVAAISWSGTRTYYADSVKGRFTISRDNAKNTVYLQMNSLKPEDTAVYYCAARRLYAGHQYDYWGQGTQVTVSS | high polyreactivity |
